Source: PMC9427990, “Dynamic mechanisms of CRISPR interference by Escherichia coli CRISPR-Cas3”

Biological target: T1, EcoCascade-crRNA(EMX1) (Escherichia coli, UniProt Q46901;P76632;Q46899;Q46898;Q46897 1-502;1-160;2-363;1-224;2-199)
T1 sequence 1: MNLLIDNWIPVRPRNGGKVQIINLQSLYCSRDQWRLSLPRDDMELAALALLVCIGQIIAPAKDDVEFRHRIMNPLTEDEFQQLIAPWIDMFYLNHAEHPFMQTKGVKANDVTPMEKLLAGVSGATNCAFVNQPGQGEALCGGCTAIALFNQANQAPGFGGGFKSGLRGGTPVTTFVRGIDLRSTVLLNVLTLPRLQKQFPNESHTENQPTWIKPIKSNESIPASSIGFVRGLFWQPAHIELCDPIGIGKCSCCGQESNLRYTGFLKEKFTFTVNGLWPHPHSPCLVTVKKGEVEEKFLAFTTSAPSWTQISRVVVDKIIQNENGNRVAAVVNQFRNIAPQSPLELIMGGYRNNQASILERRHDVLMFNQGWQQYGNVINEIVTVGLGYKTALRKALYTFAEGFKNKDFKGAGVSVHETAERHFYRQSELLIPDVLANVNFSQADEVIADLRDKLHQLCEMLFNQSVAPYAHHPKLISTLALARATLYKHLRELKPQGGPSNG
T1 sequence 2: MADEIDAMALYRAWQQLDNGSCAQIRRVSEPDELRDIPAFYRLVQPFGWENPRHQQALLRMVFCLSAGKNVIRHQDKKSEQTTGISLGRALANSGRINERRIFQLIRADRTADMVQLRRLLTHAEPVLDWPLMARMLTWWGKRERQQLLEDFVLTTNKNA
T1 sequence 3: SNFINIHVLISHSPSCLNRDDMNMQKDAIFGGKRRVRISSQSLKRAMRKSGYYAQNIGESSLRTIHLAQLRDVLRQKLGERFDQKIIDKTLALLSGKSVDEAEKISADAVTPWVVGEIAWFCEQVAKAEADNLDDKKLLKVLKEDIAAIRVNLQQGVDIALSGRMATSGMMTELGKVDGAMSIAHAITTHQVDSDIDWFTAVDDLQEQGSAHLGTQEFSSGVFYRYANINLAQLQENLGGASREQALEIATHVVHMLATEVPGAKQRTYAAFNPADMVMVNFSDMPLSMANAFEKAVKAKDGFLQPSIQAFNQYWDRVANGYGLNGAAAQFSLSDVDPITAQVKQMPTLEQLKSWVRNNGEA
T1 sequence 4: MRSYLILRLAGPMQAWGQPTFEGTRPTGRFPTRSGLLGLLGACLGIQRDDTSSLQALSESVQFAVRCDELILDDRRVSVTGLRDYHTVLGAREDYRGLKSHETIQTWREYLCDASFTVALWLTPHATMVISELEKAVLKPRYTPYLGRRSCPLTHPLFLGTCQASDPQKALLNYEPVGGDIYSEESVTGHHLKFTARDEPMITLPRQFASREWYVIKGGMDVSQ
T1 sequence 5: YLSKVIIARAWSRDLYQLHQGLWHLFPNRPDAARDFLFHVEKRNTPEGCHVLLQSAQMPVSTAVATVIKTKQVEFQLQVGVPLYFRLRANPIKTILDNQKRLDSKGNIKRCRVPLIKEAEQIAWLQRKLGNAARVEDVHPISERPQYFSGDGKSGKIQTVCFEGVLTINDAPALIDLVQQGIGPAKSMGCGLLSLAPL
Test: BLI; BLI: PBS, 0.01% Tween 20, 0.02% BSA, 20 uM EcoCascade analyte, biotinylated DNA on streptavidin; temperature not stated; EMSA conditions not in material
Conditions: protein: recombinant; tags: hexahistidine tag on Cas11, removed with HRV3C; copies: 1;2;6;1;1; label: Biotin-TEG; blunt

Binder | binding result
EMX1-AAG-12-bio (n12) (dsDNA) DNA 1: TGGCGCATTGCCACGAAGCAGGCCAATGGGTCTTCACGATCGTGACAAGACAATGACTAG DNA 2: CTAGTCATTGTCTTGTCACGATCGTGAAGACCCATTGGCCTGCTTCGTGGCAATGCGCCA | no binding
EMX1-AAG-0-bio (n0) (dsDNA) DNA 1: TGGCGCATTGCCACGAAGACTTAACCGTTTTCTTCACGATCGTGACAAGACAATGACTAG DNA 2: CTAGTCATTGTCTTGTCACGATCGTGAAGAAAACGGTTAAGTCTTCGTGGCAATGCGCCA | no binding
EMX1-AAG-6-bio (n6) (dsDNA) DNA 1: TGGCGCATTGCCACGAAGCAGGCCCCGTTTTCTTCACGATCGTGACAAGACAATGACTAG DNA 2: CTAGTCATTGTCTTGTCACGATCGTGAAGAAAACGGGGCCTGCTTCGTGGCAATGCGCCA | no binding
EMX1-AAG-32-bio (n32, paired PAM) (dsDNA) DNA 1: TGGCGCATTGCCACGAAGCAGGCCAATGGGGAGGACATCGATGTCACCTCCAATGACTAG DNA 2: CTAGTCATTGGAGGTGACATCGATGTCCTCCCCATTGGCCTGCTTCGTGGCAATGCGCCA | binds
